In the experiment the target is SbSTOP1d-NT (N-terminal fragment of SbSTOP1d, 1-275 aa, truncated before the zinc finger domain) fused to the GAL4 DNA-binding domain (Sorghum bicolor (sweet sorghum)). The experiment in a line: two-hybrid; β-galactosidase assay in yeast strain Y190 with CPRG as substrate, Miller units; BD-SbSTOP1d-NT bait, AD fusion prey.

The results in this text go back to article PMC5835670.

On to “SbSTOP1b fused to the GAL4 activation domain (natural protein)”, for which the β-galactosidase activity, fold of the control (times that of the control) was found to be 80.

With “SbSTOP1d fused to the GAL4 activation domain (natural protein)”, the β-galactosidase activity, fold of the control (times that of the control) was found to be 450.
